Where no end group is shown, it is not given here.

These results are taken from patent US7326541 (TARGANTA THERAPEUTICS, dated 2008).

B1: 96 ORF 78 fused to the carboxyl terminus of the yeast Gal4 DNA binding domain (pGBK 96ORF78) (other)
chain: MKLLSSIEQACDICRLKKLKCSKEKPKCAKCLKNNWECRYSPKTKRSPLTRAHLTEVESRLERLEQLFLLIFPREDLDMILKMDSLQDIKALLTGLFVQDNVNKDAVTDRLASVETDMPLTLRQHRISATSSSEESSNKGQRQLTVSMNIMQFKSLLKSMYEETKQSDPIVANVYIETGWAVNRLLDNNELSPFDDYDRVEKKIMNEINWKKTHIKEC
B2: GST-cleaved STAAU_R9-561-599 (peptide)
chain: GQETIESLNHKLREATRIGDVELQKYYLQQIVAKNKERM
modifications: not fully specified; also: labelled with [32P] at the HMK phosphate acceptor site when used as probe
notes: not shown: vector residues left after PreScission cleavage, with the HMK phosphorylation site of pGEX-6PK
B4: Lamin C control of the yeast two-hybrid system (pGBKLaminC) (other)
chain: MKLLSSIEQACDICRLKKLKCSKEKPKCAKCLKNNWECRYSPKTKRSPLTRAHLTEVESRLERLEQLFLLIFPREDLDMILKMDSLQDIKALLTGLFVQDNVNKDAVTDRLASVETDMPLTLRQHRISATSSSEESSNKGQRQLTVSSEEVVSREVSGIKAAYEAELGDARKTLDSVAKERARLQLELSKVREEFKELKARNTKKEGDLIAAQARLKDLEALLNSKEAALSTALSEKRTLEGELHDLRGQVAKLEAALGEAKKQLQDEMLRRVDAENRLQTMKEELDFQKNIYSEELRETKRRHETRLVEID
notes: also called pGBKT7LaminC
B6: GST-cleaved 96 ORF 78 polypeptide (from pGEX-6PK 96ORF078) (other)
chain: MNIMQFKSLLKSMYEETKQSDPIVANVYIETGWAVNRLLDNNELSPFDDYDRVEKKIMNEINWKKTHIKEC
modifications: labelled with [^32P] at the heart muscle kinase phosphate acceptor site when used as probe
notes: also called [^32P]-96 ORF 78; purified 96 ORF 78 protein; not shown: vector residues left after PreScission cleavage, with the HMK phosphorylation site of pGEX-6PK

Assay [1] addresses T1, STAAU_R9-35 (amino acids 35 to 599 of SEQ ID NO: 2) in pGADT7, Gal4 activation domain fusion (yeast; Staphylococcus aureus, UniProt Q5HFJ8 35-599).
T1 sequence: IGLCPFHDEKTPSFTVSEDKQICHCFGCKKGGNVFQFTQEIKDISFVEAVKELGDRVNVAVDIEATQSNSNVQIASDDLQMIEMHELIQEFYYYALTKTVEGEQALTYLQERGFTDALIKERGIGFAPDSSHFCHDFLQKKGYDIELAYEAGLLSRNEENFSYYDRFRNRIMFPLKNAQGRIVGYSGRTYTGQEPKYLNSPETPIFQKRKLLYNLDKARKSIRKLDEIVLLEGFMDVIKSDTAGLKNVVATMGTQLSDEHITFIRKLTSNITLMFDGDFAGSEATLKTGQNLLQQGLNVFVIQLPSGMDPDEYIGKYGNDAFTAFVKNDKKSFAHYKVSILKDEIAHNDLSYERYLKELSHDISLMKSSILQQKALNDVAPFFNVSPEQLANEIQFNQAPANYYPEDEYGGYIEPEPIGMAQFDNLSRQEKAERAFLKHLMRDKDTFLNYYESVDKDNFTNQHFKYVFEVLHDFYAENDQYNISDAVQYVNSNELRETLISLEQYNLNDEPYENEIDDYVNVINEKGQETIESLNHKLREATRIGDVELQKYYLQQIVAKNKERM
Briefly: cell-based or functional assay.

Assay [2] has as its target B6. As to the kind of experiment: affinity blotting (Far western), 32P-labelled probe on renatured blotted protein.
The target of assay [3] is T2, GST (glutathione-S-transferase), negative control (UniProt P08515 1-218 = GST).
T2 construct: also called purified GST protein
The description is as above.

The target of assay [4] is T3, GST/96ORF78 fusion protein from pGEX-6PK 96ORF078 (Staphylococcus aureus bacteriophage 96).
T3 construct: immobilized on nitrocellulose after SDS-PAGE, denatured and renatured; also called GST/960RF78; not shown: N-terminal GST tag encoded by pGEX-6P1 (Pharmacia Amersham Biotech); PreScission protease cleavage site and heart muscle kinase (HMK) phosphorylation site of pGEX-6PK (encoded by oligonucle)
T3 chain: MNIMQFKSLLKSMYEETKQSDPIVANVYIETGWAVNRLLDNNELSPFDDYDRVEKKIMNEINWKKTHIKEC
The description is as above.

In assay [5] the target is B1. As to the kind of experiment: yeast two-hybrid, growth on THAL minus medium.
For assay [6], the target named is T1, STAAU_R9-35 (amino acids 35 to 599 of …). Briefly: yeast two-hybrid, growth on THAL minus medium.
The target of assay [7] is B4. Briefly: yeast two-hybrid, growth on THAL minus medium.
The target of assay [8] is STAAU_R9-35 (amino acids 35 to 599 of SEQ ID NO: 2) in pGBKT7, Gal4 DNA binding domain fusion (yeast; Staphylococcus aureus, UniProt P04386 1-147). As to the kind of experiment: cell-based or functional assay.
Assay [9] deals with T4, GST/STAAU_R9-561-599 fusion protein from pGEX-6PK_STAAU_R9-561-599 (Staphylococcus aureus).
T4 construct: not shown: N-terminal GST tag encoded by pGEX-6P1 (Pharmacia Amersham Biotech); PreScission protease cleavage site, HMK phosphorylation site and cloning-site residues of pGEX-6PK
T4 chain: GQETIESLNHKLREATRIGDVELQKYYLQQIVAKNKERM
Briefly: affinity blotting (Far western), 32P-labelled probe on renatured blotted protein.

For assay [10], the target named is B2. The assay is described as above.

T2 sequence (P08515 whole entry): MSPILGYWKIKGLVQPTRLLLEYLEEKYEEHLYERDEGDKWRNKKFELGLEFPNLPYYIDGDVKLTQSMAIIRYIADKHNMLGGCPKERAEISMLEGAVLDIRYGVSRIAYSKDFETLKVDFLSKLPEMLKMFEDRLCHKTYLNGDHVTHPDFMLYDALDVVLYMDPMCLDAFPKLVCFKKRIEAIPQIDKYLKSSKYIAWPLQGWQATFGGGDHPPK

B1: the β-galactosidase activity in assay [1] amounted to 10 fold.
Turning to B2, the binding result in assay [2] is “binds”; in assay [3] it was “no binding”; in assay [4] it was “binds”.

B3: STAAU_R9 561 599 (amino acids 561-599 of STAAU_R9, SEQ ID NO: 6) in pGADT7, Gal4 activation domain fusion (other)
chain: GQETIESLNHKLREATRIGDVELQKYYLQQIVAKNKERM
notes: Yeast two-hybrid construct
With B3, the binding result in assay [5] was “binds”.
On to B4, for which the binding result in assay [6] is “no binding”.

B5: 96 ORF 78 fused to the yeast Gal4 activation domain (pGADT7) (other)
chain: MNIMQFKSLLKSMYEETKQSDPIVANVYIETGWAVNRLLDNNELSPFDDYDRVEKKIMNEINWKKTHIKEC
In the case of B5, the binding result in [7] was “no binding”. For the same molecule, in assay [8], the β-galactosidase activity was 10 fold.
Regarding B6, the binding result in [9] was “binds”; in assay [10], “binds”; in [3], “no binding”.
